The target in experiment [1] is T1, human GLP-1 receptor (human, UniProt P43220 24-463).
T1 construct: whole, on cells; Used as purified membranes of the transfected hamster cells, not whole cells; also called hGLP-1
The experiment can be described thus: SPA, displacement of 125I-GLP-1(7-36)NH2, 0.005% HSA.

The target in experiment [2] is T1, human GLP-1 receptor. As to the kind of experiment: SPA, 2.0% vs 0.005% HSA.

*1 amine or outer side, *2 acyl side, *3 side chain or, on linkers, in order; H or OH if unused. Where no end group is shown, it is not given here. Side-chain parts run from the residue outwards. [ ]: non-standard residue; d: D form. The star is where a group is joined. 9‑(4-carboxyphenoxy)nonanoyl = O=C(O)c1ccc(OCCCCCCCCC(=O)*)cc1; γGlu = O=C(O)[C@H](CCC(=O)[*:2])N[*:1]; Hexanoyl(6-Ph) = O=C(CCCCCc1ccccc1)*; C12 diacid = O=C(O)CCCCCCCCCCC(=O)*; 13‑carboxytridecanoyl = C14 diacid; Butanoyl(4-Ph) = O=C(CCCc1ccccc1)*; 12Ado = NCCCCCCCCCCCC(=O)O; AEEA = NCCOCCOCC(=O)O; Aib = CC(C)(N)C(=O)O; Aoc = NCCCCCCCC(=O)O

By IC50 is commonly meant the concentration needed to halve the response being measured. In the case of H[Aib]EGTFTSDVSK([AEEA-AEEA-γGlu-Hexanoyl(6-Ph)])YLEEQAAK([AEEA-AEEA-γGlu-Hexanoyl(6-Ph)])EFIAWLVQGRG [GLP-1 derivative of Example 123: [Aib8,Lys18,Glu22,Gln34]-GLP-1-(7-37)-peptide], in the experiment with human GLP-1 receptor [1], the concentration for half-maximal inhibition (IC50) was less than 1 µM. Further, in the experiment with human GLP-1 receptor [2], the “ratio IC50 high HSA/IC50 low HSA” value is greater than 1.

Molecule H[Aib]EGTFTSDVSK([AEEA-AEEA-γGlu-4‑(4-chlorophenyl)butanoyl])YLEEQAAK([AEEA-AEEA-γGlu-4‑(4-chlorophenyl)butanoyl])EFIAWLVQGRG [GLP-1 derivative of Example 121: [Aib8,Lys18,Glu22,Gln34]-GLP-1-(7-37)-peptide] came in with a concentration for half-maximal inhibition (IC50) with human GLP-1 receptor [1] of less than 1 µM. Besides, the “ratio IC50 high HSA/IC50 low HSA” value in the experiment with human GLP-1 receptor [2] is greater than 1.

As to H[Aib]EGTFTSDVSK([AEEA-AEEA-γGlu-Aoc-γGlu-Butanoyl(4-Ph)])YLEEQAAK([AEEA-AEEA-γGlu-Aoc-γGlu-Butanoyl(4-Ph)])EFIAWLVQGRG [GLP-1 derivative of Example 109: [Aib8,Lys18,Glu22,Gln34]-GLP-1-(7-37)-peptide], the half-inhibitory concentration (IC50) with human GLP-1 receptor [1] is less than 1 µM. For the same molecule, the “ratio IC50 high HSA/IC50 low HSA” value in the experiment with human GLP-1 receptor [2] is greater than 1.

HAEGTFTSDVSK([AEEA-AEEA-γGlu-C12 diacid])YLEEQAVREFIAK([AEEA-AEEA-γGlu-C12 diacid])LVG [GLP-1 derivative of Example 11: [Lys18,Glu22,Val25,Arg26,Lys31,Gly34]-GLP-1-(7-34)-peptide]: the half-maximal inhibitory concentration (IC50) with human GLP-1 receptor [1] is less than 1 µM. The “ratio IC50 high HSA/IC50 low HSA” value with human GLP-1 receptor [2] is greater than 1.

Regarding HAEGTFTSDVSK([γGlu-AEEA-AEEA-13‑carboxytridecanoyl])YLEEQAAREFIAK([γGlu-AEEA-AEEA-13‑carboxytridecanoyl])LVRGRG [GLP-1 derivative of Example 116: [Lys18,Glu22,Arg26,Lys31,Arg34]-GLP-1-(7-37)-peptide], the IC50 with human GLP-1 receptor [1] is less than 1 µM. In addition, the “ratio IC50 high HSA/IC50 low HSA” value in the experiment with human GLP-1 receptor [2] is greater than 1.

For H[Aib]EGTFTSDVSK([AEEA-AEEA-γGlu-4‑(4-nitrophenyl)butanoyl])YLEEQAAK([AEEA-AEEA-γGlu-4‑(4-nitrophenyl)butanoyl])EFIAWLVQGRG [GLP-1 derivative of Example 122: [Aib8,Lys18,Glu22,Gln34]-GLP-1-(7-37)-peptide], the IC50 with human GLP-1 receptor [1] was less than 1 µM. Moreover, in the experiment with human GLP-1 receptor [2], the “ratio IC50 high HSA/IC50 low HSA” value is greater than 1.

For HAEGTFTSDVSK([AEEA-AEEA-γGlu-13‑carboxytridecanoyl])YLEEQAVREFIK([AEEA-AEEA-γGlu-13‑carboxytridecanoyl])HLVG [GLP-1 derivative of Example 52: [Lys18,Glu22,Val25,Arg26,Lys30,His31,Gly34]-GLP-1-(7-34)-peptide], the IC50 with human GLP-1 receptor [1] is less than 1 µM. The “ratio IC50 high HSA/IC50 low HSA” value with human GLP-1 receptor [2] is greater than 1.

In the experiment with human GLP-1 receptor [1], HAEGTFTSDVSK([AEEA-AEEA-γGlu-13‑carboxytridecanoyl])YLEEQAVRLFIK([AEEA-AEEA-γGlu-13‑carboxytridecanoyl])WLVG [GLP-1 derivative of Example 53: [Lys18,Glu22,Val25,Arg26,Leu27,Lys30,Gly34]-GLP-1-(7-34)-peptide] came in with a concentration for half-maximal inhibition (IC50) of less than 1 µM. Moreover, in the experiment with human GLP-1 receptor [2], the “ratio IC50 high HSA/IC50 low HSA” value was greater than 1.

For HAEGTFTSDVSK([AEEA-AEEA-γGlu-C12 diacid])YLEEQAVREFIAHLVK([AEEA-AEEA-γGlu-C12 diacid]) [GLP-1 derivative of Example 66: [Lys18,Glu22,Val25,Arg26,His31]-GLP-1-(7-34)-peptide], the IC50 with human GLP-1 receptor [1] was less than 1 µM. Besides, the “ratio IC50 high HSA/IC50 low HSA” value in the experiment with human GLP-1 receptor [2] was greater than 1.

In turn, HAEGTFTSDVSK([AEEA-AEEA-γGlu-9‑(4-carboxyphenoxy)nonanoyl])YLEEQAARK([AEEA-AEEA-γGlu-9‑(4-carboxyphenoxy)nonanoyl])FIAHLVG [GLP-1 derivative of Example 64: [Lys18,Glu22,Arg26,Lys27,His31,Gly34]-GLP-1-(7-34)-peptide] had a half-inhibitory concentration (IC50) in the experiment with human GLP-1 receptor [1] of less than 1 µM. In the experiment with human GLP-1 receptor [2], the “ratio IC50 high HSA/IC50 low HSA” value was greater than 1.

For the molecule HAEGTFTSDVSK([γGlu-AEEA-γGlu-13‑carboxytridecanoyl])YLEEQAARK([γGlu-AEEA-γGlu-13‑carboxytridecanoyl])FIAHLVG [GLP-1 derivative of Example 59: [Lys18,Glu22,Arg26,Lys27,His31,Gly34]-GLP-1-(7-34)-peptide], the IC50 with human GLP-1 receptor [1] was less than 1 µM. Moreover, the “ratio IC50 high HSA/IC50 low HSA” value with human GLP-1 receptor [2] is greater than 1.

The molecule H[Aib]EGTFTSDVSK([AEEA-AEEA-γGlu-12Ado-γGlu-Butanoyl(4-Ph)])YLEEQAAK([AEEA-AEEA-γGlu-12Ado-γGlu-Butanoyl(4-Ph)])EFIAWLVQGRG [GLP-1 derivative of Example 113: [Aib8,Lys18,Glu22,Gln34]-GLP-1-(7-37)-peptide] displayed an IC50 with human GLP-1 receptor [1] of less than 1 µM. In the experiment with human GLP-1 receptor [2], the “ratio IC50 high HSA/IC50 low HSA” value is greater than 1.
